Patent publication US20240209099A1 (SUZHOU TRANSCENTA THERAPEUTICS, published 2024)
Numbering of substitutions follows the chain as printed. Values belong to the binder of their own block, whether it stands above or below them.

Columns and labels:
[1] = target: T1, Recombinant Rhesus macaque VEGFR2/KDR Protein, His tag (rhesus macaque); experiment: ELISA, rhesus VEGFR2-his coated, anti-human Fc-HRP
T1 construct: Expressed in HEK293, bought from ACRO Biosystems; also called rhesus VEGFR2-his; rhesus VEGFR2
T1 chain: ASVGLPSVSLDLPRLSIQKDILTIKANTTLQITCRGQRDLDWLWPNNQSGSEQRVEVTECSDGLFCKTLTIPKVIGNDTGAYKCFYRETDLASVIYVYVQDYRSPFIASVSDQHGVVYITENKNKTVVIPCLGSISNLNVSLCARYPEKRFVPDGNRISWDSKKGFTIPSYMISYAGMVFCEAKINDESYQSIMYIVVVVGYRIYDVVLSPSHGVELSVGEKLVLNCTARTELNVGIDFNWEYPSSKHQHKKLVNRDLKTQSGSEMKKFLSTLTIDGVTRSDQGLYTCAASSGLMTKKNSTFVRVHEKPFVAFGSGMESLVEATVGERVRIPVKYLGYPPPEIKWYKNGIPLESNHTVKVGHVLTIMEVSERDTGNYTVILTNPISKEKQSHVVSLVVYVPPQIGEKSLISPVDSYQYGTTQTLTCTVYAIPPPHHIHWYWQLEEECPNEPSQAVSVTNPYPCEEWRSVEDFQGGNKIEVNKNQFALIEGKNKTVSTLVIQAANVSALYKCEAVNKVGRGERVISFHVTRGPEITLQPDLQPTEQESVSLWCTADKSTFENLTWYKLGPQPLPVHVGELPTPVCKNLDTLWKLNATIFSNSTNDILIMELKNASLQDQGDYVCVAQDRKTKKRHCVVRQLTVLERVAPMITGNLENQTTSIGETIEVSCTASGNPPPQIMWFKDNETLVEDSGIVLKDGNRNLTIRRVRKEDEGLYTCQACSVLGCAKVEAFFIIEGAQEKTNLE
Experimental: (§1) Same protocol of Example 2 antibody screening by ELISA assay. Briefly, 0.5 μg/ml hVEGFR2-his was coated and serially diluted purified antibodies would bind to coated antigen. Using HRP conjugated goat anti-mouse Fc antibody could detect binding signals of each antibody.
(§2) Same protocol of Example 4 except using HRP conjugated goat anti-human Fc antibody as secondary antibody. Binding to hVEGFR2-his and rhesus VEGFR2-his (Acrobiosystems, Cat #VE2-C52H3) were also analyzed head-to-head.

[2] = target: T2, Recombinant Human VEGFR2/KDR Protein, His tag (hVEGFR2-his) (human, UniProt P35968 20-764); experiment: ELISA, hVEGFR2-his coated (0.5 ug/ml), anti-human Fc-HRP
T2 construct: Expressed in HEK293, bought from ACRO Biosystems; also called human VEGFR2-his; Human VEGFR2/KDR-His
Experimental: as §1, §2

[3] = target: T3, human VEGFR2 on HUVEC cells (human, UniProt P35968 20-1356); experiment: flow cytometry on HUVEC cells, percent shifted cells (Shift %), anti-human IgG-PE
T3 construct: also called hVEGFR2 on HUVEC

[4] = target: T2, Recombinant Human VEGFR2/KDR Protein, …; experiment: competition ELISA: VEGF-A coated (0.25 ug/ml), antibody mixed with VEGFR2, detection with mouse anti-VEGFR2 serum and anti-mouse Fc-HRP; blocked ligand VEGF-A
Experimental: (§3) For this assay, 0.25 μg/ml VEGF-A was coated on ELISA plate before a mixture of chimeric antibodies and VEGFR2 were added. To detect free VEGF-A (not bind to VEGFR2), 1:1000 diluted mouse serum (mouse previous immunized with human VEGFR2) were added and HRP conjugated goat anti-mouse Fc antibody was used as secondary antibody.

[5] = target: T2, Recombinant Human VEGFR2/KDR Protein, …; experiment: ELISA, hVEGFR2-his coated, anti-human Fc-HRP
Experimental: as §2
(§4) Same protocol of Example 9.

[6] = target: T2, Recombinant Human VEGFR2/KDR Protein, …; experiment: SPR (Biacore), antibody captured by anti-Fc, antigen 2.5-80 nM
Experimental: A CM5 sensor chip was activated in each flow cell by 7-min injection (10 μl/min) of freshly prepared 1:1 50 mM N-hydroxysuccinimide (NHS): 200 mM 1-ethyl-3-(3-dimethylaminopropyl)-carbodiimide (EDC). Then anti-human Fc antibody (GE Healthcare) in a concentration of 10 μg/ml in 10 mM sodium acetate buffer PH 5.0 was injected onto the activated chip at 10 μl/min (HBS-EP running buffer: 10 mM HEPES, 150 mM NaCl, 3.4 mM EDTA, 0.005% surfactant P20, pH 7.4). The remaining active coupling sites were blocked by 7 min injection of 1M ethanolamine at 10 μl/min. The immobilization level of each flow cell is ˜9000RU. Antibodies were captured in FC2 by anti-human Fc IgG or anti-mouse Fc (GE Healthcare) to 200˜300RU. FC1 was used as the reference cell. Antigen was injected at varying concentrations (2.5 nM, 5 nM, 10 nM, 20 nM, 40 nM and 80 nM) after capture of antibody. The association time for antibody binding antigen is 180s. Surface Regeneration condition is 120s at 10 μl/min in Gly pH1.5. The signals with captured antibody subtracted from those without captured antibody were calculated with Biacore X100 evaluation software ver. 2.0 (Biacore).

human VEGFR1 protein = target: T4, human VEGFR1 protein (human, UniProt P17948 27-756); experiment: ELISA, 1 µg/ml antigen coated, 1 µg/ml antibody
T4 construct: also called Sino Biological 10136-H08H
T4 sequence (P17948 27-756 limits assumed): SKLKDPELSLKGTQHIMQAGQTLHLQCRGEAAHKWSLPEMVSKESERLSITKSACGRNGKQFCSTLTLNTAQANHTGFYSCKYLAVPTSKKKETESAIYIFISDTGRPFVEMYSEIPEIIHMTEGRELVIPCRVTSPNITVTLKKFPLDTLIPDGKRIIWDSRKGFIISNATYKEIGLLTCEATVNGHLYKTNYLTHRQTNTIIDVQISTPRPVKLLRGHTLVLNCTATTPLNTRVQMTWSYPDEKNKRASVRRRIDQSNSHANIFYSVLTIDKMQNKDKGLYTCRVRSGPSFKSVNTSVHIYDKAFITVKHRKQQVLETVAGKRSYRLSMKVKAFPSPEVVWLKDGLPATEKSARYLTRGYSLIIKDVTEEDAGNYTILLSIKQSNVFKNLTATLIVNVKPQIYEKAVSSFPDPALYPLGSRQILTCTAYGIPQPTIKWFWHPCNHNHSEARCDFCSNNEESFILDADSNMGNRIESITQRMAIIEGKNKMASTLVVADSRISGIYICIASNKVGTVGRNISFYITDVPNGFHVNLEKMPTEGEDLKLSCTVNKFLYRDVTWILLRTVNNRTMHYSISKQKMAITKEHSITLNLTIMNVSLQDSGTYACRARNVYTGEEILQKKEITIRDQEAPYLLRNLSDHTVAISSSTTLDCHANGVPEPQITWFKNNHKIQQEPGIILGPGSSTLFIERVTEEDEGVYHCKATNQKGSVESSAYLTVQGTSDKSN
Experimental: (§5) Briefly, 1 μg/ml human VEGFR1 (Sino Biological, cat #10136-H08H), VEGFR2 (Acrobiosystem, cat #KDR-H5227) and VEGFR3 (Sino Biological, cat #10806-H08H) protein were coated overnight at 4° C. 1 μg/ml humanized antibodies (48-H3L1 and 54-H2L1, produced in CHO cells or Ramucirumab from Eli Lilly Germany, lot #20150819) were added for binding to coated antigen. Secondary antibody HRP conjugated goat anti-human Fc antibody were added for detection of binding signal.

human VEGFR3 protein = target: T5, human VEGFR3 protein (human, UniProt P35916 25-776); experiment: ELISA, 1 µg/ml antigen coated, 1 µg/ml antibody
T5 construct: also called Sino Biological 10806-H08H
T5 sequence (looked up): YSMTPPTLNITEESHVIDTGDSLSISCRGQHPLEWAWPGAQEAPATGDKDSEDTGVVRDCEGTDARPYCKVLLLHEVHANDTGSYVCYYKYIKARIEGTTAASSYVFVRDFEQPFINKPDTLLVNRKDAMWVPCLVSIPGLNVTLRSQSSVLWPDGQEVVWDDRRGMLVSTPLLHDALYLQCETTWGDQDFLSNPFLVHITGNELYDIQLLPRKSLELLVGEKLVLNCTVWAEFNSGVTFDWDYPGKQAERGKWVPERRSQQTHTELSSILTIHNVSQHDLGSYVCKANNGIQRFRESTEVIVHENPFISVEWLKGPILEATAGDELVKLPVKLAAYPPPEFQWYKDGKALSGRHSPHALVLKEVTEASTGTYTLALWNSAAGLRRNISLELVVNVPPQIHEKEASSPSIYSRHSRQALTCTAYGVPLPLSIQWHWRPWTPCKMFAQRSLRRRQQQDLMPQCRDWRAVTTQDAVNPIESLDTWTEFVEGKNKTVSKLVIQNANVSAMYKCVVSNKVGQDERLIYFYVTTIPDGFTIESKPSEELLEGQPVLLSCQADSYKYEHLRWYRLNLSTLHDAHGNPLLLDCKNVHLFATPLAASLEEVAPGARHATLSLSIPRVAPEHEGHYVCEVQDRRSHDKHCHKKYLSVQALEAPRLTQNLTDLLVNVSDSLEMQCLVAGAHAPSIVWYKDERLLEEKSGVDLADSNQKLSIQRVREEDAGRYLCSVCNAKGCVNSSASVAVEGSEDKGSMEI
Experimental: as §5

[7] = target: T3, human VEGFR2 on HUVEC cells; experiment: flow cytometry on HUVEC cells, MFI, anti-human IgG (H+L)-PE
Experimental: Same methods with Example 11. Briefly, Log phase HUVEC cells were collected and added to each tube. Then 100 μl/tube serial diluted humanized antibodies in FACS buffer were added and kept at 4° C. for 1 hr. Binding of antibodies to HUVEC was detected by PE signal of the 2nd antibody (anti-hIgG (H+L)-PE), which was added after the 1st antibodies. (see FIG. 15).

[8] = target: T2, Recombinant Human VEGFR2/KDR Protein, …; experiment: ELISA, hVEGFR2-his coated, anti-human Fc-HRP; antibody made in 293T cells
Experimental: as §2, §4

[9] = target: T2, Recombinant Human VEGFR2/KDR Protein, …; experiment: ELISA, human VEGFR2-his coated, anti-human Fc-HRP; antibody made in CHO cells
[10] = target: T1, Recombinant Rhesus macaque VEGFR2/KDR …; experiment: ELISA, rhesus VEGFR2-his coated, anti-human Fc-HRP; antibody made in CHO cells
[11] = target: T2, Recombinant Human VEGFR2/KDR Protein, …; experiment: competition ELISA: VEGF-A coated (0.25 ug/ml), antibody titrated together with 1 ug/ml human VEGFR2, detection with mouse anti-VEGFR2 serum and anti-mouse Fc-HRP; blocked ligand VEGF-A
Experimental: as §3
(§6) Same protocol of Example 10. Briefly, 0.25 μg/ml VEGF-A was coated overnight at 4° C. After blocking, serial diluted 54-H2L1, 48-H3L1, Ramucirumab and 1 μg/ml human VEGFR2 or rhesus VEGFR2 were added at the same time for 2 hour-incubation. After wash, mouse serum containing polyclone VEGFR2 antibody and HRP conjugated goat anti-mouse Fc antibody were added for detection of free VEGF-A coated on the plates (see FIGS. 13A and 13B).

[12] = target: T1, Recombinant Rhesus macaque VEGFR2/KDR …; experiment: competition ELISA: VEGF-A coated (0.25 ug/ml), antibody titrated together with 1 ug/ml rhesus VEGFR2, detection with mouse anti-VEGFR2 serum and anti-mouse Fc-HRP; blocked ligand VEGF-A
Experimental: as §3, §6

- EC50 [1]: 0.0299 µg/mL
- EC50 [2]: 0.015 µg/mL
- EC50 [3]: 0.157 µg/mL
- IC50 [4]: 0.148 µg/mL
B1: 042C (chimeric 042) (antibody, V domains shown)
VH: EVQLVESGGDLVKPGGSLKLSCTASGFSFSIYGMSWVRQTPDKRLEWVASISVGGSYTYYADSVEGRFTISRENAKNTLYLQMNSLKSEDTALYYCARELDGNYDYWGQGTSLTVSS
VL: DIVITQNELSNPVTFGESVSISCRSSKSLLYKDGKTYLNWFLQRPGQSPQLLIYLMSTRASGVSDRFSGSGSGTDFTLEISRVKAEDVGVYYCQQLVEYPFTFGSGTKLEIK
notes: Chimeric antibody with human constant regions (vector pCP-Hck/Hcg1)

- EC50 [5]: 0.0186 µg/mL
- EC50 [1]: 0.0168 µg/mL
- Kd [6]: 2.45 nM
- koff [6]: 0.000113 s⁻¹
- kon [6]: 46000 M⁻¹ s⁻¹
- EC50 [2]: 0.0189 µg/mL
- EC50 [3]: 0.0875 µg/mL
- IC50 [4]: 0.1 µg/mL
B2: 054C (chimeric 054) (antibody, V domains shown)
VH: B1 VH with T23A, S28T, I31M, V53I, T69I, Y80F, S112T
VL: B1 VL with D1H, V3M, N7D, V90I
notes: as for B1

- EC50 [5]: 0.00574 µg/mL
- EC50 [1]: 0.0101 µg/mL
- EC50 [2]: 0.0053 µg/mL
- IC50 [4]: 0.09 µg/mL
B3: 048C (chimeric 048) (antibody, V domains shown)
VH: B1 VH with T23A, S28T, I31M, V53I, Y80F, L100M, Q109H, S112T
VL: B1 VL with I2V, V3M, N7D, V90I
notes: as for B1

- binding result (human VEGFR1 protein): no binding (tested: 1 µg/ml)
- binding result (human VEGFR3 protein): no binding (tested: 1 µg/ml)
- EC50 (read off the curve) [7]: ~0.2 µg/mL
- EC50 [8]: 0.0205 µg/mL
- EC50 [9]: 0.00899 µg/mL
- EC50 [10]: 0.00864 µg/mL
- IC50 [11]: 0.727 µg/mL
- IC50 [12]: 0.833 µg/mL
B4: 48-H3L1 (humanized Mab48) (antibody, human IgG1, V domains shown)
VH: EVQLVESGGGLVKPGGSLRLSCAASGFTFSMYGMSWVRQAPGKRLEWVASISIGGSYTYYADSVKGRFTISRDNAKNTLYLQMNSLRAEDTAVYYCAREMDGNYDYWGHGTTLTVSS
VL: B1 VL with N7D, N11L, E79K, K84E, V90I
notes: also called 48-H3L1 (CHO)
